Data as given in US8088412B2, “Intralymphatic chemotherapy drug carriers” (priority 2008, dated 2012).
Like-named read-outs stand apart in the source and are kept apart here. Marks after values point to notes of the source that are not given here.

Assays:
MDA-MB-468LN = assay: Cell proliferation over 72 hrs, resazurin blue; type: cell-based, human
Method: Preceding proliferation studies, cells were trypsinized and seeded into 96-well plates (5,000 cells/well). […] After 4 hrs, well fluorescence was measured (λex 560 nm, λem 590 nm) using a fluorophotometer (SpectraMax Gemini; Molecular Devices, Sunnyvale, Calif.). IC50 was determined as the midpoint between saline (positive) and cell-free (negative) controls for each plate.

MCF7 = assay: In vitro cell toxicity (DMEM, resazurin blue, 72 hrs); type: cell-based, human
Method: (§1) Cell lines were seeded into 96-well plates (5000 cells/well) in DMEM medium supplemented with 5% FBS and 1% penicillin/streptomycin.

MDA-MB-231 = assay: as above; type: cell-based, human
Method: as §1

[1] = design: species or system Sprague-Dawley rats; details: rat, in vivo, sc
Method: Sprague-Dawley rats (female, 200-250 g) were cannulated in the left jugular vein under isoflurane and allowed to recover overnight. […] Subcutaneous injections were given in the uppermost right mammary fatpad of the animal. Whole blood was withdrawn (100 μl) from the cannula at 0, 5 min, 0.5, 1, 2, 4, 6, 12, 24, 48 and 96 hrs after dosing and placed into 2-ml centrifuge tubes pretreated with heparin. The cannula was washed before and after withdrawal with saline and then heparin locked. The whole blood was centrifuged at 17,000×g for 5 mins, and the plasma was frozen at −80° C. until analysis. Animals were euthanized […]. The right ipsilateral axilla nodes (treated side), left contralateral axilla nodes (control side), and major organs (liver, kidneys, heart, spleen, lungs, brain, muscle, bladder) were excised; washed with 0.9% saline; and stored at −80° C. until analysis. […] Typically, 50 mg of tissue sample was digested using 1.5 ml of 6.7% nitric acid for 2 hours at 80° C. After digestion, samples were homogenized (Tissue Tearor; BioSpec Products Inc., Bartlesville, Okla.) and centrifuged. The supernatant and plasma samples were analyzed by AAS as described in the Synthesis section.
In vitro release samples (n=3) and plasma samples (n=5) were diluted 200-fold and 10-fold, respectively, with 0.1% nitric acid for analysis. […]

[2] = Tissue distribution after subcutaneous cisplatin or cisplatin-HA into right mammary fat pad; type: in vivo, Sprague-Dawley rats
Method: Animals were allowed to recover with access to food and water. […] Organs and tissues were washed with 0.9% saline and frozen (−80° C.) until analysis. Plasma was separated by centrifugation from whole blood and frozen (−80° C.).
In vitro release samples (n=3) and plasma samples (n=5) were diluted 200-fold and 10-fold, respectively, with 0.1% nitric acid for analysis. […] Lymph nodes were processed similarly using 10 mg of tissue. After digestion, samples were homogenized (Tissue Tearor, BioSpec Products Inc., Bartlesville, Okla.). All samples were centrifuged (17 000×g, 20 min), and the supernate used for analysis.
Analysis was performed on a Varian SpectrAA GTA-110 with graphite furnace and partition tubes. Samples (21 μL) were injected using the autosampler, followed by 19 μL of 0.1% nitric acid. […] The furnace program was as follows: ramp 25 to 80° C., hold 2 s, ramp to 120° C., hold 10 s, ramp to 1000° C., hold 5 s, ramp to 2700° C., hold 2 s, cool to 25° C. over 20 s. The graphite partition tube was cleaned every 40 samples by baking at 2800° C. for 7 s. Argon was used as the injection and carrier gas.

[3] = Long-term toxicology: urine creatinine; type: in vivo, Sprague-Dawley rats; details: 3.3 mg/kg subcutaneous, single dose
Method: Each animal was administered a single bolus dose at the beginning of the 30-day study period. […] Urine samples were centrifuged at 17,000×g for 5 mins and stored in −80° C. freezer until creatinine analysis.
Urine creatinine was analyzed using the QuantiChrom™ Creatinine Assay Kit according to the manufacturer's instructions (BioAssay Systems, Hayward, Calif.). Creatinine concentration of the sample was calculated as (ODSAMPLE 5-ODSAMPLE 1) (ODSTD 5-ODSTD 1)×[STD] (mg/dL). ODSAMPLE5 ODSAMPLE1, ODSTD5, and ODSTD1 are OD510nm values of sample and standard at 5 min and 1 min, respectively.

[4] = test system: three aggressive human breast cancer cell lines; assay: Cell proliferation, Alamar blue assay, 72 hrs; type: cell-based; details: breast cancer cells in culture
Method: The 10% w/w conjugate was applied to cells, and 72 hrs later, cell proliferation was determined using the Alamar blue assay (Invitrogen Corp.). […] Similarly, cisplatin conjugates were applied to breast cancer cells in culture. […] This may be due release of anticancer drugs from nanocarriers into the culture media, followed by uptake as with free drug.

Substance: [PtCl(H2O)(NH3)2]OOCO-HA [HA-cisplatin]
- IC50 (MDA-MB-468LN; HA carriers on a Pt-basis equivalent to cisplatin): 10 mg/L
- IC50 (MDA-MB-468LN; Pt-basis, read-out: IC50): 33 µM
- IC50 (MCF7; MCF-7, cisplatin basis): 7 mg/L
- IC50 (MCF7; MCF-7, read-out: IC50): 23 µM
- IC50 (MDA-MB-231; cisplatin basis): 7 mg/L
- IC50 (MDA-MB-231; read-out: IC50): 23 µM
- delay before plasma platinum peaked and plateaued-off [1]: 2 h
- AUC in the right (draining axillary) lymph node, greater than cisplatin in saline ([2]; 96 hrs, subcutaneous, p=0.0001): 74%
- AUC (0-96 hrs) ([2]; Bladder, subcutaneous into right mammary fatpad of female rats): 194.5 µg·h/g
- AUC (0-96 hrs) ([2]; Brain, subcutaneous into right mammary fatpad): 343.7 µg·h/g
- AUC (0-96 hrs) ([2]; Heart, subcutaneous into right mammary fatpad): 465.3 µg·h/g
- AUC (0-96 hrs) ([2]; Kidneys, subcutaneous into right mammary fatpad): 668.6 µg·h/g
- AUC (0-96 hrs) ([2]; Left lymph node (LLN), subcutaneous into right mammary fatpad): 413.4 µg·h/g
- AUC (0-96 hrs) ([2]; Liver, subcutaneous into right mammary fatpad): 495.0 µg·h/g
- AUC (0-96 hrs) ([2]; Lungs, subcutaneous into right mammary fatpad): 347.3 µg·h/g
- AUC (0-96 hrs) ([2]; Muscle, subcutaneous into right mammary fatpad): 262.1 µg·h/g
- AUC (0-96 hrs) ([2]; Plasma, subcutaneous into right mammary fatpad): 186.1 µg·h/g
- AUC (0-96 hrs) ([2]; Right lymph node (RLN), subcutaneous into right mammary fatpad, p < 0.05): 776.0 ^† μg · hr/g
- AUC (0-96 hrs) ([2]; Spleen, subcutaneous into right mammary fatpad): 383.4 µg·h/g
- distribution of cisplatin to other organs vs cisplatin ([2]; over the study period): not significantly different over the study period
- AUC in the non-draining left lymph node (LLN) vs cisplatin in saline ([2]; p=0.12): not significantly different from cisplatin in saline
- plasma AUC, difference between cisplatin-HA and cisplatin ([2]; p=0.13): not a significant difference
- serum Cmax ([2]; subcutaneous, 3.3 mg/kg cisplatin basis, FIG. 10B): less than 3 micrograms/mL
- tolerability in rodents ([2]; subcutaneous, after 96 hours): well tolerated in rodents with no signs of injection site morbidity or major organ toxicity after 96 hours
- urine creatinine levels [3]: remained near pre-dosing levels
- anticancer activity compared with free cisplatin [4]: not significantly different from free cisplatin
